Laboratory results: patent publication US20130251640

How the values were obtained:
[1] = test system: T1, substrate a, Mca-Gly-Ser-Pro-Ala-Phe**Leu-Ala-Lys(Dnp)-DArg-CONH2
T1 sequence: GSPAFLAKR

[2] = test system: T2, substrate b, Mca-Gly-Pro-Ile-Leu-Phe**Phe-Arg-Leu-Gly-Lys(Dnp)-DArg-CONH2
T2 sequence: GPILFFRLGKR

[3] = test system: T3, substrate c, Mca-Gly-Pro-Ile-Leu-Phe**Phe-Arg-Leu-Lys(Dnp)-DArg-CONH2
T3 sequence: GPILFFRLKR

[4] = test system: T4, substrate d, Mca-Ala-Gly-Phe-Ser-Leu**Gly-Pro-Lys(Dnp)-DArg-CONH2
T4 sequence: AGFSLGPKR

[5] = test system: T5, substrate e, Mca-Ala-Gly-Phe-Ser-Leu**Pro-Ala-Lys(Dnp)-D-Arg-CONH2
T5 sequence: AGFSLPAKR

Substance | fluorescence intensity on hydrolysis (FRET substrate) [1] | fluorescence intensity on hydrolysis (FRET substrate) [2] | fluorescence intensity on hydrolysis (FRET substrate) [3] | fluorescence intensity on hydrolysis (FRET substrate) [4] | Kcat/Km [5] | fluorescence intensity on hydrolysis (FRET substrate) [5] | Kcat [5] [S^-1] | Km [5] [µM] | Vmax [5] [µM S^-1]
Cathepsin D (purchased from Calbiochem, EMD Bioscience) | such leading increase in fluorescence signal with Cath E was observed as well upon incubation with Cath D | Compared to substrate b, substrate c shows superior increase in the fluorescence intensity upon hydrolysis by both Cath E and Cath D | Compared to substrate b, substrate c shows superior increase in the fluorescence intensity upon hydrolysis by both Cath E and Cath D | both substrates d and e exhibited similar slow hydrolysis by Cath D | NM^a | both substrates d and e exhibited similar slow hydrolysis by Cath D | – | – | –
Cathepsin E (purchased from Calbiochem, EMD Bioscience) | A prominent fluorescence increase of substrate a was observed instantaneously upon incubation with Cath E | Compared to substrate b, substrate c shows superior increase in the fluorescence intensity upon hydrolysis by both Cath E and Cath D | Compared to substrate b, substrate c shows superior increase in the fluorescence intensity upon hydrolysis by both Cath E and Cath D | substrate d showed relatively slow hydrolysis and did not reach saturation within the monitored period | 16.7 | substrate e was activated by Cath E quickly and reached saturation within 10 minutes | 322 | 19.4 | 2.2
